Results on seven molecules are retold here after patent publication US20230340112A1.

B1: 89H-IgG4 S228P (antibody, V domains shown)
VH: EVQLVESGGGLVQPGGSLRLSCAASGFSLSTYAMIWVRQAPGKGLEWVGIISPSGTTYYATWAKGRFTISRDNSKNTLYLQMNSLRAEDTAVYYCARAGSGGWDYFNIWGQGTLVTVSS
VL: DIQMTQSPSSLSASVGDRVTITCQASQSISSYLSWYQQKPGKAPKLLIYYASNLASGVPSRFSGSGSGTDFTLTISSLQPEDFATYYCQSYYYSNNYNWAFGGGTKVEIK
B2: 14H2B-IgG4 S228P (antibody, V domains shown)
VH: EVQLVESGGGLVQPGGSLRLSCAASGIDLSSYSMIWVRQAPGKGLEWIGIIYTGGSTDYASWAKGRFTISRDNSKNTLYLQMNSLRAEDTAVYYCARENSHDTFDPWGQGTLVTVSS
VL: DIQMTQSPSSLSASVGDRVTITCQSSQSVYTNYQSWYQQKPGKAPKLLIYAASTLASGVPSRFSGSGSGTDFTLTISSLQPEDFATYYCLGSYVSSGWYYAFGGGTKVEIK
B3: 8H- IgG4 S228P (antibody, V domains shown)
VH: EVQLVESGGGLVQPGGSLRLSCAASGFSFSSSDYMCWVRQAPGKGLEWVGCINSGSDTTSYATWAKGRFTISRDNAKNTLYLQMNSLRAEDTAVYYCARGYGSAGANGYVIGMKYLNLWGQGTLVTVSS
VL: DIQMTQSPSSLSASVGDRVTITCQASQSIGSNLAWYQQKPGKAPKLLIYTASTLESGVPSRFSGSGSGTDFTLTISSLQPEDFATYYCQCTYGSSSSGYPFGGGTKVEIK
B4: 4H- IgG4 S228P (antibody, V domains shown)
VH: EVQLVESGGGLVQPGGSLRLSCAASGFSFSSYYFMCWVRQAPGKGLEWVACIDAGYSGGSHYASWAKGRFTISRDNSKNTLYLQMNSLRAEDTAVYYCARAYEYGYGGYDLWGQGTLVTVSS
VL: DIQMTQSPSSLSASVGDRVTITCQASQSIDSNLAWYQQKPGKAPKLLIYRASGLESGVPSRFSGSGSGTDFTLTISSLQPEDFATYYCQCTYGSNDSGNYANAFGGGTKVEIK
B5: OSE-172 (antibody, from another filing, V domains shown)
VH: EVQLVQSGAEVKKPGESLRISCKASGYSFTSYWVHWVRQMPGKGLEWMGNIDPSDSDTHYSPSFQGHVTLSVDKSISTAYLQLSSLKASDTAMYYCVRGGTGTLAYFAYWGQGTLVTVSS
VL: DVVMTQSPLSLPVTLGQPASISCRSSQSLVHSYGNTYLYWFQQRPGQSPRLLIYRVSNRFSGVPDRFSGSGSGTDFTLKISRVEAEDVGVYYCFQGTHVPYTFGGGTKVEIKR
B6: 44H-IgG4 S228P (antibody, V domains shown)
VH: B2 VH with I27F, D28S, I48V, G55S, T57A, D58S
VL: B2 VL with Q34L
B7: 4E10-IgG4 S228P (antibody, V domains shown)
VH: EVQLVESGGGLVQPGGSLRLSCAASGFSLSNYEMIWVRQAPGKGLEWVGIIYVSRSTHYASWAKGRFTISRDNSKNTLYLQMNSLRAEDTAVYYCGRYLASGGFNIWGQGTLVTVSS
VL: DIQMTQSPSTLSASVGDRVTITCQASHNIYSNLAWYQQKPGKAPKLLIYDASKLASGVPSRFSGSGSGTEFTLTISSLQPDDFATYYCQSYYGNSYPFGGGTKVEIK

Changes are numbered by the printed parent chain. Names and notes keep the numbering of the source.

For one assay, the target named is human SIRPα expressed on the surface of human monocyte-derived dendritic cells (human) (UniProt P78324). The assay can be described thus: flow cytometry, mDC surface binding, donor/experiment 1.
Chain of human SIRPα expressed on the surface of human monocyte-derived dendritic cells (human) (P78324 31-504): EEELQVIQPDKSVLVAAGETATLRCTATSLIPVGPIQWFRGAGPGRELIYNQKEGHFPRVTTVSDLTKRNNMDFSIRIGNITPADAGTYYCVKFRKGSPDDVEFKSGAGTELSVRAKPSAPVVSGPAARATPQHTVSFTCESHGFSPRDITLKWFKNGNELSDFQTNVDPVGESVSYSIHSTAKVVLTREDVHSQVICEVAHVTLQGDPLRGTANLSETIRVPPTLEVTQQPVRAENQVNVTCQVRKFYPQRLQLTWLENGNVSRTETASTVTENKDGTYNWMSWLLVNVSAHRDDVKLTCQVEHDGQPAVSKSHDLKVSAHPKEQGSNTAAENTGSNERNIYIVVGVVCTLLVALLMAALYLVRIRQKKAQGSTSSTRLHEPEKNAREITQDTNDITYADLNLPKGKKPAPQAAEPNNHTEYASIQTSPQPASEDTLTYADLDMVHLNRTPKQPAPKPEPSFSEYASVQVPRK
The molecule B1 registered a dissociation constant Kd of 1.04 nM.

The molecule B2 came in with a Kd of 1.48 nM.

A further assay shares this target. The assay can be described thus: flow cytometry, mDC surface binding, donor/experiment 2.
As to B1, the Kd is 0.923 nM.

Turning to B2, the Kd was 0.953 nM.

For a further assay the target is unchanged. The assay can be described thus: flow cytometry, mDC surface binding, donor/experiment 3.
In turn, B1 gave a Kd of 0.881 nM.

B2 yielded a Kd of 0.99 nM.

A further assay has the same target. The assay can be described thus: flow cytometry, mDC surface binding, donor/experiment 4.
B1 displayed a Kd of 0.908 nM.

As to B2, the Kd is 1.33 nM.

Another assay has the same target. The assay can be described thus: flow cytometry on human monocyte-derived dendritic cells.
Molecule B3 showed a Kd of 1.66 nM.

The molecule B1 had a Kd of 0.378 nM.

B4 gave a Kd of 0.0881 nM.

Turning to B5, the Kd turned out to be 0.572 nM.

Molecule B2 yielded a Kd of 0.686 nM.

For B6, the Kd was 0.672 nM.

B7 displayed a Kd of 0.264 nM.
